{"source": "patent US20160194394A1", "about": "(GOVERNING COUNCIL OF THE UNIVERSITY OF TORONTO, published 2016)", "key": {"[1]": {"target": "T1, recombinant Frizzled receptor 7 (FZD7) cysteine-rich domain (CRD) fused to the Fc region of human IgG (human, UniProt O75084 33-185)", "test": "ELISA, 1ug/ml (20nM) Fab", "description": "(§1) FIG. 2B is a table depicting the binding of purified Fabs to purified FZD7-Fc measured by ELISA. Fabs purified from 25 ml bacterial cultures were assayed for binding to FZD7-Fc fusion protein (R&D systems) and Fc protein. ELISA plates (384 well) were coated with 2 ug/ml of protein in PBS overnight at four degrees. Wells were blocked with 0.5% BSA/PBS for 1 hour at room temperature, washed three times with 0.05% Tween20/PBS (wash buffer), and then primary dilutions of Fabs in 0.5% BSA/0.05% Tween20/PBS (dilution buffer) were added at indicated concentrations. Fabs were incubated for 1 hour at room temperature, wells were washed six times, and anti-FLAG-HRP (Sigma) was added at 1:5000 in dilution buffer. Secondary antibody was incubated for 45 minutes at room temperature, and wells were washed six times and developed with TMB substrate with an acid stop. The absorbance at 450 nm was read. n.t.=not tested."}, "Fc control protein [2]": {"target": "T2, Fc control protein", "T2 construct": "also called Fc protein; control Fc protein", "test": "ELISA, 1ug/ml (20nM) Fab", "description": "as §1"}, "[3]": {"target": "T1, recombinant Frizzled receptor 7 (FZD7) …", "test": "ELISA, 10ug/ml (200nM) Fab", "description": "as §1"}, "Fc control protein [4]": {"target": "T2, Fc control protein", "test": "ELISA, 10ug/ml (200nM) Fab", "description": "as §1"}, "[5]": {"target": "T3, FZD7 receptor expressed on cells (full-length) (UniProt O75084 33-574, limits assumed)", "T3 construct": "whole, on cells; MDA MB 231 cells may carry other Frizzled receptors too; also called full-length FZD7 receptor; endogenous receptor on MDA MB 231 cells", "test": "flow cytometry, 200 nM Fab, MDA MB 231", "description": "(§2) FIG. 3 is a table depicting the binding of the purified Fabs to cells expressing FZD7 (flow cytometry). Small scale Fabs were assayed for binding to full-length FZD7 receptor to an over-expression line in MDA MB 231 cells. In parallel, Fabs were assayed for binding to endogenous receptor expressed on the MDA MB 231 cells. Cells were harvested using an EDTA solution, blocked in 2% FBS/PBS (stain buffer), and stained with 200 nM Fab for 30 min on ice. Cells were washed two times with stain buffer and incubated with anti-F(ab′)₂-APC secondary antibody (Jackson Immuno) at 1:1000 for 15 minutes on ice. All antibodies were diluted in stain buffer. Cells were washed three times with stain buffer and then fixed with 1% paraformaldehye for analysis by flow cytometry. […] The percent of the cell population within the positive gates is indicated."}, "[6]": {"target": "T3, FZD7 receptor expressed on cells …", "test": "flow cytometry, 200 nM Fab, FZD7 over-expression line (MDA MB 231)", "description": "as §2"}, "Fc control protein [7]": {"target": "T2, Fc control protein", "test": "ELISA, 1ug/ml (20nM) Fab [cont'd]", "description": "as §1"}, "Fc control protein [8]": {"target": "T2, Fc control protein", "test": "ELISA, 10ug/ml (200nM) Fab [cont'd]", "description": "as §1"}, "[9]": {"target": "T3, FZD7 receptor expressed on cells …", "test": "flow cytometry, 200 nM Fab, MDA MB 231 [cont'd]", "description": "as §2"}, "[10]": {"target": "T3, FZD7 receptor expressed on cells …", "test": "flow cytometry, 200 nM Fab, FZD7 over-expression line (MDA MB 231) [cont'd]", "description": "as §2"}}}
{"binder": "C8 (Fab, selection round 2; also called Fzd7-R2-C8) light: DIQMTQSPSSLSASVGDRVTITCRASQSVSSAVAWYQQKPGKAPKLLIYSASSLYSGVPSRFSGSRSGTDFTLTISSLQPEDFATYYCQQYSPSSFLITFGQGTKVEIKRTVAAPSVFIFPPSDSQLKSGTASVVCLLNNFYPREAKVQWKVDNALQSGNSQESVTEQDSKDSTYSLSSTLTLSKADYEKHKVYACEVTHQGLSSPVTKSFNRGECGGS heavy: EVQLVESGGGLVQPGGSLRLSCAASGFNIYYSYIHWVRQAPGKGLEWVASISSSSGYTSYADSVKGRFTISADTSKNTAYLQMNSLRAEDTAVYYCARSYGYYYYFYYYGGMDYWGQGTLVTVSSASTKGPSVFPLAPSSKSTSGGTAALGCLVKDYFPEPVTVSWNSGALTSGVHTFPAVLQSSGLYSLSSVVTVPSSSLGTQTYICNVNHKPSNTKVDKKVEPKSC", "values": [{"measurement": "OD 450", "setting": "[1]", "value": 0.55}, {"measurement": "OD 450", "setting": "Fc control protein [2]", "value": 0.05}, {"measurement": "OD 450", "setting": "[3]", "value": 1.36}, {"measurement": "OD 450", "setting": "Fc control protein [4]", "value": 0.09}, {"measurement": "% population within the positive gate", "setting": "[5]", "value": 2.7, "unit": "%"}, {"measurement": "% population within the positive gate", "setting": "[6]", "value": 83.5, "unit": "%"}]}
{"binder": "D2 (Fab, selection round 2; also called Fzd7-R2-D2) light: DIQMTQSPSSLSASVGDRVTITCRASQSVSSAVAWYQQKPGKAPKLLIYSASSLYSGVPSRFSGSRSGTDFTLTISSLQPEDFATYYCQQSYSGWGPFTFGQGTKVEIKRTVAAPSVFIFPPSDSQLKSGTASVVCLLNNFYPREAKVQWKVDNALQSGNSQESVTEQDSKDSTYSLSSTLTLSKADYEKHKVYACEVTHQGLSSPVTKSFNRGECGGS heavy: EVQLVESGGGLVQPGGSLRLSCAASGFNISSSYIHWVRQAPGKGLEWVASISSSSSYTYYADSVKGRFTISADTSKNTAYLQMNSLRAEDTAVYYCARSAYPFSWSYPSYVGYYSGLDYWGQGTLVTVSSASTKGPSVFPLAPSSKSTSGGTAALGCLVKDYFPEPVTVSWNSGALTSGVHTFPAVLQSSGLYSLSSVVTVPSSSLGTQTYICNVNHKPSNTKVDKKVEPKSC", "values": [{"measurement": "OD 450", "setting": "[1]", "value": 0.5}, {"measurement": "OD 450", "setting": "Fc control protein [2]", "value": 0.06}, {"measurement": "OD 450", "setting": "[3]", "value": 1.6}, {"measurement": "OD 450", "setting": "Fc control protein [4]", "value": 0.05}, {"measurement": "% population within the positive gate", "setting": "[5]", "value": 0.8, "unit": "%"}, {"measurement": "% population within the positive gate", "setting": "[6]", "value": 75.2, "unit": "%"}]}
{"binder": "D5 (Fab, selection round 2; also called Fzd7-R2-D5) light: DIQMTQSPSSLSASVGDRVTITCRASQSVSSAVAWYQQKPGKAPKLLIYSASSLYSGVPSRFSGSRSGTDFTLTISSLQPEDFATYYCQQAYYLITFGQGTKVEIKRTVAAPSVFIFPPSDSQLKSGTASVVCLLNNFYPREAKVQWKVDNALQSGNSQESVTEQDSKDSTYSLSSTLTLSKADYEKHKVYACEVTHQGLSSPVTKSFNRGECGGS heavy: EVQLVESGGGLVQPGGSLRLSCAASGFNIYYSSIHWVRQAPGKGLEWVASIYPSSGYTYYADSVKGRFTISADTSKNTAYLQMNSLRAEDTAVYYCARWAPHSSSWWSVYGWSAWAFDYWGQGTLVTVSSASTKGPSVFPLAPSSKSTSGGTAALGCLVKDYFPEPVTVSWNSGALTSGVHTFPAVLQSSGLYSLSSVVTVPSSSLGTQTYICNVNHKPSNTKVDKKVEPKSC", "values": [{"measurement": "OD 450", "setting": "[1]", "value": 2.65}, {"measurement": "OD 450", "setting": "Fc control protein [2]", "value": 0.06}, {"measurement": "OD 450", "setting": "[3]", "value": 3.21}, {"measurement": "OD 450", "setting": "Fc control protein [4]", "value": 0.17}, {"measurement": "% population within the positive gate", "setting": "[5]", "value": 3.9, "unit": "%"}, {"measurement": "% population within the positive gate", "setting": "[6]", "value": 88.1, "unit": "%"}]}
{"binder": "H11 (Fab, selection round 2; also called Fzd7-R2-H11) light: DIQMTQSPSSLSASVGDRVTITCRASQSVSSAVAWYQQKPGKAPKLLIYSASSLYSGVPSRFSGSRSGTDFTLTISSLQPEDFATYYCQQYSGPITFGQGTKVEIKRTVAAPSVFIFPPSDSQLKSGTASVVCLLNNFYPREAKVQWKVDNALQSGNSQESVTEQDSKDSTYSLSSTLTLSKADYEKHKVYACEVTHQGLSSPVTKSFNRGECGGS heavy: EVQLVESGGGLVQPGGSLRLSCAASGFNISSSYIHWVRQAPGKGLEWVAYIYPYYSYTYYADSVKGRFTISADTSKNTAYLQMNSLRAEDTAVYYCARSVTYHSSGWVPPWYWGYAFDYWGQGTLVTVSSASTKGPSVFPLAPSSKSTSGGTAALGCLVKDYFPEPVTVSWNSGALTSGVHTFPAVLQSSGLYSLSSVVTVPSSSLGTQTYICNVNHKPSNTKVDKKVEPKSC", "values": [{"measurement": "OD 450", "setting": "[1]", "value": 3.18}, {"measurement": "OD 450", "setting": "Fc control protein [2]", "value": 0.05}, {"measurement": "OD 450", "setting": "[3]", "value": 3.23}, {"measurement": "OD 450", "setting": "Fc control protein [4]", "value": 0.06}]}
{"binder": "C11 (Fab, selection round 2; also called Fzd7-R2-C11) light: DIQMTQSPSSLSASVGDRVTITCRASQSVSSAVAWYQQKPGKAPKLLIYSASSLYSGVPSRFSGSRSGTDFTLTISSLQPEDFATYYCQQGHYYPYYLFTFGQGTKVEIKRTVAAPSVFIFPPSDSQLKSGTASVVCLLNNFYPREAKVQWKVDNALQSGNSQESVTEQDSKDSTYSLSSTLTLSKADYEKHKVYACEVTHQGLSSPVTKSFNRGECGGS heavy: EVQLVESGGGLVQPGGSLRLSCAASGFNIYYSYMHWVRQAPGKGLEWVASIYSYSGYTYYADSVKGRFTISADTSKNTAYLQMNSLRAEDTAVYYCARSVWGYPYGMDYWGQGTLVTVSSASTKGPSVFPLAPSSKSTSGGTAALGCLVKDYFPEPVTVSWNSGALTSGVHTFPAVLQSSGLYSLSSVVTVPSSSLGTQTYICNVNHKPSNTKVDKKVEPKSC", "values": [{"measurement": "OD 450", "setting": "[1]", "value": 0.24}, {"measurement": "OD 450", "setting": "Fc control protein [2]", "value": 0.07}, {"measurement": "OD 450", "setting": "[3]", "value": 1.09}, {"measurement": "OD 450", "setting": "Fc control protein [4]", "value": 0.06}, {"measurement": "% population within the positive gate", "setting": "[5]", "value": 1, "unit": "%"}, {"measurement": "% population within the positive gate", "setting": "[6]", "value": 42, "unit": "%"}]}
{"binder": "A10 (Fab, V domains shown, selection round 3; also called Fzd7-R3-A10) VH: EVQLVESGGGLVQPGGSLRLSCAASGFNFSSSSIHWVRQAPGKGLEWVAYIYPYYGYTYYADSVKGRFTISADTSKNTAYLQMNSLRAEDTAVYYCARWVVAGHYGMDYWGQGTLVTVSS VL: DIQMTQSPSSLSASVGDRVTITCRASQSVSSAVAWYQQKPGKAPKLLIYSASSLYSGVPSRFSGSRSGTDFTLTISSLQPEDFATYYCQQSYWPGWPITFGQGTKVEIKR", "values": [{"measurement": "OD 450", "setting": "Fc control protein [7]", "value": 0.05}, {"measurement": "OD 450", "setting": "Fc control protein [8]", "value": 0.05}]}
{"binder": "B12 (Fab, V domains shown, selection round 2; also called Fzd7-R2-B12) VH: EVQLVESGGGLVQPGGSLRLSCAASGFNLSYSYMHWVRQAPGKGLEWVASISSSYGYTYYADSVKGRFTISADTSKNTAYLQMNSLRAEDTAVYYCARAAGPYWYSYWYSAMDYWGQGTLVTVSS VL: DIQMTQSPSSLSASVGDRVTITCRASQSVSSAVAWYQQKPGKAPKLLIYSASSLYSGVPSRFSGSRSGTDFTLTISSLQPEDFATYYCQQSSYSLITFGQGTKVEIKR", "values": [{"measurement": "OD 450", "setting": "Fc control protein [7]", "value": 0.05}, {"measurement": "OD 450", "setting": "Fc control protein [8]", "value": 0.06}, {"measurement": "% population within the positive gate", "setting": "[9]", "value": 0.9, "unit": "%"}, {"measurement": "% population within the positive gate", "setting": "[10]", "value": 74.6, "unit": "%"}]}
{"binder": "B8 (Fab, selection round 2; also called Fzd7-R2-B8) light: DIQMTQSPSSLSASVGDRVTITCRASQSVSSAVAWYQQKPGKAPKLLIYSASSLYSGVPSRFSGSRSGTDFTLTISSLQPEDFATYYCQQSSYSLITFGQGTKVEIKRTVAAPSVFIFPPSDSQLKSGTASVVCLLNNFYPREAKVQWKVDNALQSGNSQESVTEQDSKDSTYSLSSTLTLSKADYEKHKVYACEVTHQGLSSPVTKSFNRGECGGS heavy: EVQLVESGGGLVQPGGSLRLSCAASGFNISSYYIHWVRQAPGKGLEWVASISSSYGYTYYADSVKGRFTISADTSKNTAYLQMNSLRAEDTAVYYCARPWSHYSSGAYWHPWSGHALDYWGQGTLVTVSSASTKGPSVFPLAPSSKSTSGGTAALGCLVKDYFPEPVTVSWNSGALTSGVHTFPAVLQSSGLYSLSSVVTVPSSSLGTQTYICNVNHKPSNTKVDKKVEPKSC", "values": [{"measurement": "OD 450", "setting": "[1]", "value": 0.24}, {"measurement": "OD 450", "setting": "Fc control protein [2]", "value": 0.05}, {"measurement": "OD 450", "setting": "[3]", "value": 1.16}, {"measurement": "OD 450", "setting": "Fc control protein [4]", "value": 0.05}, {"measurement": "% population within the positive gate", "setting": "[5]", "value": 2.8, "unit": "%"}, {"measurement": "% population within the positive gate", "setting": "[6]", "value": 80.9, "unit": "%"}]}
